The target of assay [1] is Phosphorylated MST2 kinase domain (pMST2-K) (human) (UniProt Q13188).
In assay [2] the target is Phosphorylated MST2 kinase linker (pMST2-KL) (human) (UniProt Q13188).
Assay [3] concerns the target Phosphorylated full-length MST2 (pMST2-FL) (human) (UniProt Q13188).
Assay [4] addresses T1, Unphosphorylated full-length MST2 (MST2-FL) (human) (UniProt Q13188).
T1 sequence: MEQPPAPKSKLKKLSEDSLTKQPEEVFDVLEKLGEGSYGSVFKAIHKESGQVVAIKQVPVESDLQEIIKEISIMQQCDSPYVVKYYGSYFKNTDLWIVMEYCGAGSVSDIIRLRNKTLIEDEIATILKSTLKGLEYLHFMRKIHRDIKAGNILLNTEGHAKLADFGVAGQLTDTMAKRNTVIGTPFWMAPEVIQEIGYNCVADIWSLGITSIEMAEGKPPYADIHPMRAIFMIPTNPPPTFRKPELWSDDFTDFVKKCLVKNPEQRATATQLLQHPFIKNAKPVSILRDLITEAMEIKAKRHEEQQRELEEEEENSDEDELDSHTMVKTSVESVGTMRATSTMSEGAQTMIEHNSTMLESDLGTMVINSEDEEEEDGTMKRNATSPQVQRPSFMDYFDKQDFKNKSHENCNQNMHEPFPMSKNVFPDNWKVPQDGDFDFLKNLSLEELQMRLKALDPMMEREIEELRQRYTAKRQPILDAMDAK

The star is where a group is joined. Biotin = O=C1N[C@H]2[C@H](CS[C@H]2CCCCC(=O)*)N1

B1: peptide substrate (Biotin-…-NH2) (peptide)
peptide: Biotin-GGGENWYNTLKRKK-NH2
SMILES: CC(C)C[C@H](NC(=O)[C@@H](NC(=O)[C@H](CC(N)=O)NC(=O)[C@H](Cc1ccc(O)cc1)NC(=O)[C@H](Cc1c[nH]c2ccccc12)NC(=O)[C@H](CC(N)=O)NC(=O)[C@H](CCC(=O)O)NC(=O)CNC(=O)CNC(=O)CNC(=O)CCCC[C@@H]1SC[C@@H]2NC(=O)N[C@@H]21)[C@@H](C)O)C(=O)N[C@@H](CCCCN)C(=O)N[C@@H](CCCNC(=N)N)C(=O)N[C@@H](CCCCN)C(=O)N[C@@H](CCCCN)C(N)=O
As to B1, the Km^app peptide, radiometric kinase assay (steady state, 30°C) in assay [1] is 27 µM; in assay [2], 35 µM; in assay [3], 32 µM; in assay [4] it was 139 µM.
